Measurements as given in publication PMC6315849.

Target: Labeled Vip3Aa (MST) (Bacillus thuringiensis)
Assay: MST; labeled Vip3Aa 10 nM, GST-FGFR-N titrated 0.3 nM to 10 µM; 25 mM HEPES pH 7.5, 0.05% Tween-20, 150 mM NaCl; 25 °C; Hill equation fit; three independent experiments

Substance: GST-FGFR-N (extracellular regions of Sf-FGFR, aa 27-415, with a GST tag) (domain or fragment)
- Kd: 1.43 µM
